Data reported in paper PMC12368639.

Target: Cluster of Differentiation 147 (CD147) (human)
Experiment: single-molecule force spectroscopy (AFM)

Cluster of Differentiation 147 (CD147) (human), sequence (P35613 other isoform, or with tags, fused parts or gaps): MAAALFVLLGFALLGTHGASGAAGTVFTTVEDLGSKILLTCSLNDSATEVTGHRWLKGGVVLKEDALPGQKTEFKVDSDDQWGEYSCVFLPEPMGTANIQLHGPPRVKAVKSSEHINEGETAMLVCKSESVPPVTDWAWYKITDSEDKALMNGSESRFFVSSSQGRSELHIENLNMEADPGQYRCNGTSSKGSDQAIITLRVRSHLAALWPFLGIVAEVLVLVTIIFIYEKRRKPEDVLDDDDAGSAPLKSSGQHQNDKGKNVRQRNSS

Substance: Full length Spike Protein (SARS-CoV-2) (from UniProt P0DTC2) (natural protein)
- mean adhesion force: 41.9 pN
- mean adhesion force (tip contact time 0 s): 38.8 pN
- mean adhesion force at 37 °C: 46.2 pN
